Test results taken from the supplement of paper PMC11811203.

B1: THAP1; numbered along this chain (parent)
chain: MVQSCSAYGCKNRYDKDKPVSFHKFPLTRPSLCKEWEAAVRRKNFKPTKYSSICSEHFTPDCFKRECNNKLLKENAVPTIFLCTEPHDKKEDLLEPQEQLPPPPLPPPVSQVDAAIGLLMPPLQTPVNLSVFCDHNYTVEDTMHQRKRIHQLEQQVEKLRKKLKTAQQRCRRQERQLEKLKEVVHFQKEKDDVSERGYVILPNDYFEIVEVPA

Variants of: B1
Assay: THAP1 transcriptional activity (GFP+/GFP- enrichment relative to wild-type constructs) (ratio to WT); higher = more THAP1 activity (PSMB5 reporter activation)
Conditions: with PSMB5 promoter-GFP reporter
Method in brief: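 A lentiviral site-saturation library covering residues 2–213 of human THAP1, with each position changed to all 20 amino acids, was transduced in duplicate at MOI ~0.3 into THAP1-knockout HEK-293T cells with mClover3 knocked in at endogenous PSMB5. Five days later, BFP+ cells were sorted into GFP-dim and GFP-bright bins and variants were counted by Illumina sequencing of genomic DNA amplicons. Activity is the bright/dim read fold change averaged over replicates and divided by the mean of wild-type synonymous constructs.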

Row | Variant | THAP1 transcriptional activity
1 | MVQSCSAYGCKNRYDKDKPVSFHKFPLTRPSLCKEWEAAVRRKNFKPTKYSSICSEHFTPDCFKRECNNKLLKENAVPTIFLCTEPHDKKEDLLEPQEQLPPPPLPPPVSQVDAAIGLLMPPLQTPVNLSVFCDHNYTVEDTMHQRKRIHQLEQQVEKLRKKLKTAQQRCRRQERQLEKLKEVVHFQKEKDDVSERGYVILPIDYFEIVEVPA [N203I] | 1.01
2 | MVQSCSAYGCKNRYDKDKPVSFHKFPLTRPSLCKEWEAAVRRKNFKPTKYSSICSEHFTPDCFKRECNNKLLKENAVPTIFLCTEPHDKKEDLLEPQEQLPPPPLPPPVSQVDAAIGLLMPPLQTPVNLSVFCDHNYTVEDTMHQRKRIHQLEQQVEKLRKKLKTAQQRCRRQERQLEKLKEVVHFQKEKDDVSERGYVILPRDYFEIVEVPA [N203R] | 0.497
3 | MVQSCSAYGCKNRYDKDKPVSFHKFPLTRPSLCKEWEAAVRRKNFKPTKYSSICSEHFTPDCFKRECNNKLLKENAVPTIFLCTEPHDKKEDLLEPQEQLPPPPLPPPVSQVDAAIGLLMPPLQTPVNLSVFCDHNYTVEDTMHQRKRIHQLEQQVEKLRKKLKTAQQRCRRQERQLEKLKEVVHFQKEKDDVSERGYVILPQDYFEIVEVPA [N203Q] | 0.904
4 | MVQSCSAYGCKNRYDKDKPVSFHKFPLTRPSLCKEWEAAVRRKNFKPTKYSSICSEHFTPDCFKRECNNKLLKENAVPTIFLCTEPHDKKEDLLEPQEQLPPPPLPPPVSQVDAAIGLLMPPLQTPVNLSVFCDHNYTVEDTMHQRKRIHQLEQQVEKLRKKLKTAQQRCRRQERQLEKLKEVVHFQKEKDDVSERGYVILPYDYFEIVEVPA [N203Y] | 1.02
5 | MVQSCSAYGCKNRYDKDKPVSFHKFPLTRPSLCKEWEAAVRRKNFKPTKYSSICSEHFTPDCFKRECNNKLLKENAVPTIFLCTEPHDKKEDLLEPQEQLPPPPLPPPVSQVDAAIGLLMPPLQTPVNLSVFCDHNYTVEDTMHQRKRIHQLEQQVEKLRKKLKTAQQRCRRQERQLEKLKEVVHFQKEKDDVSERGYVILPPDYFEIVEVPA [N203P] | 0.855
6 | MVQSCSAYGCKNRYDKDKPVSFHKFPLTRPSLCKEWEAAVRRKNFKPTKYSSICSEHFTPDCFKRECNNKLLKENAVPTIFLCTEPHDKKEDLLEPQEQLPPPPLPPPVSQVDAAIGLLMPPLQTPVNLSVFCDHNYTVEDTMHQRKRIHQLEQQVEKLRKKLKTAQQRCRRQERQLEKLKEVVHFQKEKDDVSERGYVILPDDYFEIVEVPA [N203D] | 0.653
7 | MVQSCSAYGCKNRYDKDKPVSFHKFPLTRPSLCKEWEAAVRRKNFKPTKYSSICSEHFTPDCFKRECNNKLLKENAVPTIFLCTEPHDKKEDLLEPQEQLPPPPLPPPVSQVDAAIGLLMPPLQTPVNLSVFCDHNYTVEDTMHQRKRIHQLEQQVEKLRKKLKTAQQRCRRQERQLEKLKEVVHFQKEKDDVSERGYVILPWDYFEIVEVPA [N203W] | 0.535
8 | MVQSCSAYGCKNRYDKDKPVSFHKFPLTRPSLCKEWEAAVRRKNFKPTKYSSICSEHFTPDCFKRECNNKLLKENAVPTIFLCTEPHDKKEDLLEPQEQLPPPPLPPPVSQVDAAIGLLMPPLQTPVNLSVFCDHNYTVEDTMHQRKRIHQLEQQVEKLRKKLKTAQQRCRRQERQLEKLKEVVHFQKEKDDVSERGYVILPHDYFEIVEVPA [N203H] | 1.32
9 | MVQSCSAYGCKNRYDKDKPVSFHKFPLTRPSLCKEWEAAVRRKNFKPTKYSSICSEHFTPDCFKRECNNKLLKENAVPTIFLCTEPHDKKEDLLEPQEQLPPPPLPPPVSQVDAAIGLLMPPLQTPVNLSVFCDHNYTVEDTMHQRKRIHQLEQQVEKLRKKLKTAQQRCRRQERQLEKLKEVVHFQKEKDDVSERGYVILPEDYFEIVEVPA [N203E] | 1.14
10 | MVQSCSAYGCKNRYDKDKPVSFHKFPLTRPSLCKEWEAAVRRKNFKPTKYSSICSEHFTPDCFKRECNNKLLKENAVPTIFLCTEPHDKKEDLLEPQEQLPPPPLPPPVSQVDAAIGLLMPPLQTPVNLSVFCDHNYTVEDTMHQRKRIHQLEQQVEKLRKKLKTAQQRCRRQERQLEKLKEVVHFQKEKDDVSERGYVILPGDYFEIVEVPA [N203G] | 1.23
11 | MVQSCSAYGCKNRYDKDKPVSFHKFPLTRPSLCKEWEAAVRRKNFKPTKYSSICSEHFTPDCFKRECNNKLLKENAVPTIFLCTEPHDKKEDLLEPQEQLPPPPLPPPVSQVDAAIGLLMPPLQTPVNLSVFCDHNYTVEDTMHQRKRIHQLEQQVEKLRKKLKTAQQRCRRQERQLEKLKEVVHFQKEKDDVSERGYVILPTDYFEIVEVPA [N203T] | 1.15
12 | MVQSCSAYGCKNRYDKDKPVSFHKFPLTRPSLCKEWEAAVRRKNFKPTKYSSICSEHFTPDCFKRECNNKLLKENAVPTIFLCTEPHDKKEDLLEPQEQLPPPPLPPPVSQVDAAIGLLMPPLQTPVNLSVFCDHNYTVEDTMHQRKRIHQLEQQVEKLRKKLKTAQQRCRRQERQLEKLKEVVHFQKEKDDVSERGYVILPFDYFEIVEVPA [N203F] | 0.728
13 | MVQSCSAYGCKNRYDKDKPVSFHKFPLTRPSLCKEWEAAVRRKNFKPTKYSSICSEHFTPDCFKRECNNKLLKENAVPTIFLCTEPHDKKEDLLEPQEQLPPPPLPPPVSQVDAAIGLLMPPLQTPVNLSVFCDHNYTVEDTMHQRKRIHQLEQQVEKLRKKLKTAQQRCRRQERQLEKLKEVVHFQKEKDDVSERGYVILPSDYFEIVEVPA [N203S] | 1.54
14 | MVQSCSAYGCKNRYDKDKPVSFHKFPLTRPSLCKEWEAAVRRKNFKPTKYSSICSEHFTPDCFKRECNNKLLKENAVPTIFLCTEPHDKKEDLLEPQEQLPPPPLPPPVSQVDAAIGLLMPPLQTPVNLSVFCDHNYTVEDTMHQRKRIHQLEQQVEKLRKKLKTAQQRCRRQERQLEKLKEVVHFQKEKDDVSERGYVILPMDYFEIVEVPA [N203M] | 0.934
15 | MVQSCSAYGCKNRYDKDKPVSFHKFPLTRPSLCKEWEAAVRRKNFKPTKYSSICSEHFTPDCFKRECNNKLLKENAVPTIFLCTEPHDKKEDLLEPQEQLPPPPLPPPVSQVDAAIGLLMPPLQTPVNLSVFCDHNYTVEDTMHQRKRIHQLEQQVEKLRKKLKTAQQRCRRQERQLEKLKEVVHFQKEKDDVSERGYVILPVDYFEIVEVPA [N203V] | 0.886
16 | MVQSCSAYGCKNRYDKDKPVSFHKFPLTRPSLCKEWEAAVRRKNFKPTKYSSICSEHFTPDCFKRECNNKLLKENAVPTIFLCTEPHDKKEDLLEPQEQLPPPPLPPPVSQVDAAIGLLMPPLQTPVNLSVFCDHNYTVEDTMHQRKRIHQLEQQVEKLRKKLKTAQQRCRRQERQLEKLKEVVHFQKEKDDVSERGYVILPNAYFEIVEVPA [D204A] | 1.26
17 | MVQSCSAYGCKNRYDKDKPVSFHKFPLTRPSLCKEWEAAVRRKNFKPTKYSSICSEHFTPDCFKRECNNKLLKENAVPTIFLCTEPHDKKEDLLEPQEQLPPPPLPPPVSQVDAAIGLLMPPLQTPVNLSVFCDHNYTVEDTMHQRKRIHQLEQQVEKLRKKLKTAQQRCRRQERQLEKLKEVVHFQKEKDDVSERGYVILPNQYFEIVEVPA [D204Q] | 0.749
18 | MVQSCSAYGCKNRYDKDKPVSFHKFPLTRPSLCKEWEAAVRRKNFKPTKYSSICSEHFTPDCFKRECNNKLLKENAVPTIFLCTEPHDKKEDLLEPQEQLPPPPLPPPVSQVDAAIGLLMPPLQTPVNLSVFCDHNYTVEDTMHQRKRIHQLEQQVEKLRKKLKTAQQRCRRQERQLEKLKEVVHFQKEKDDVSERGYVILPNMYFEIVEVPA [D204M] | 0.901
19 | MVQSCSAYGCKNRYDKDKPVSFHKFPLTRPSLCKEWEAAVRRKNFKPTKYSSICSEHFTPDCFKRECNNKLLKENAVPTIFLCTEPHDKKEDLLEPQEQLPPPPLPPPVSQVDAAIGLLMPPLQTPVNLSVFCDHNYTVEDTMHQRKRIHQLEQQVEKLRKKLKTAQQRCRRQERQLEKLKEVVHFQKEKDDVSERGYVILPNPYFEIVEVPA [D204P] | 0.777
20 | MVQSCSAYGCKNRYDKDKPVSFHKFPLTRPSLCKEWEAAVRRKNFKPTKYSSICSEHFTPDCFKRECNNKLLKENAVPTIFLCTEPHDKKEDLLEPQEQLPPPPLPPPVSQVDAAIGLLMPPLQTPVNLSVFCDHNYTVEDTMHQRKRIHQLEQQVEKLRKKLKTAQQRCRRQERQLEKLKEVVHFQKEKDDVSERGYVILPNIYFEIVEVPA [D204I] | 0.437
21 | MVQSCSAYGCKNRYDKDKPVSFHKFPLTRPSLCKEWEAAVRRKNFKPTKYSSICSEHFTPDCFKRECNNKLLKENAVPTIFLCTEPHDKKEDLLEPQEQLPPPPLPPPVSQVDAAIGLLMPPLQTPVNLSVFCDHNYTVEDTMHQRKRIHQLEQQVEKLRKKLKTAQQRCRRQERQLEKLKEVVHFQKEKDDVSERGYVILPNGYFEIVEVPA [D204G] | 0.311
22 | MVQSCSAYGCKNRYDKDKPVSFHKFPLTRPSLCKEWEAAVRRKNFKPTKYSSICSEHFTPDCFKRECNNKLLKENAVPTIFLCTEPHDKKEDLLEPQEQLPPPPLPPPVSQVDAAIGLLMPPLQTPVNLSVFCDHNYTVEDTMHQRKRIHQLEQQVEKLRKKLKTAQQRCRRQERQLEKLKEVVHFQKEKDDVSERGYVILPNSYFEIVEVPA [D204S] | 1.82
23 | MVQSCSAYGCKNRYDKDKPVSFHKFPLTRPSLCKEWEAAVRRKNFKPTKYSSICSEHFTPDCFKRECNNKLLKENAVPTIFLCTEPHDKKEDLLEPQEQLPPPPLPPPVSQVDAAIGLLMPPLQTPVNLSVFCDHNYTVEDTMHQRKRIHQLEQQVEKLRKKLKTAQQRCRRQERQLEKLKEVVHFQKEKDDVSERGYVILPNCYFEIVEVPA [D204C] | 0.753
24 | MVQSCSAYGCKNRYDKDKPVSFHKFPLTRPSLCKEWEAAVRRKNFKPTKYSSICSEHFTPDCFKRECNNKLLKENAVPTIFLCTEPHDKKEDLLEPQEQLPPPPLPPPVSQVDAAIGLLMPPLQTPVNLSVFCDHNYTVEDTMHQRKRIHQLEQQVEKLRKKLKTAQQRCRRQERQLEKLKEVVHFQKEKDDVSERGYVILPNLYFEIVEVPA [D204L] | 1.04
25 | MVQSCSAYGCKNRYDKDKPVSFHKFPLTRPSLCKEWEAAVRRKNFKPTKYSSICSEHFTPDCFKRECNNKLLKENAVPTIFLCTEPHDKKEDLLEPQEQLPPPPLPPPVSQVDAAIGLLMPPLQTPVNLSVFCDHNYTVEDTMHQRKRIHQLEQQVEKLRKKLKTAQQRCRRQERQLEKLKEVVHFQKEKDDVSERGYVILPNKYFEIVEVPA [D204K] | 0.75
26 | MVQSCSAYGCKNRYDKDKPVSFHKFPLTRPSLCKEWEAAVRRKNFKPTKYSSICSEHFTPDCFKRECNNKLLKENAVPTIFLCTEPHDKKEDLLEPQEQLPPPPLPPPVSQVDAAIGLLMPPLQTPVNLSVFCDHNYTVEDTMHQRKRIHQLEQQVEKLRKKLKTAQQRCRRQERQLEKLKEVVHFQKEKDDVSERGYVILPNHYFEIVEVPA [D204H] | 0.501
27 | MVQSCSAYGCKNRYDKDKPVSFHKFPLTRPSLCKEWEAAVRRKNFKPTKYSSICSEHFTPDCFKRECNNKLLKENAVPTIFLCTEPHDKKEDLLEPQEQLPPPPLPPPVSQVDAAIGLLMPPLQTPVNLSVFCDHNYTVEDTMHQRKRIHQLEQQVEKLRKKLKTAQQRCRRQERQLEKLKEVVHFQKEKDDVSERGYVILPNRYFEIVEVPA [D204R] | 0.547
28 | MVQSCSAYGCKNRYDKDKPVSFHKFPLTRPSLCKEWEAAVRRKNFKPTKYSSICSEHFTPDCFKRECNNKLLKENAVPTIFLCTEPHDKKEDLLEPQEQLPPPPLPPPVSQVDAAIGLLMPPLQTPVNLSVFCDHNYTVEDTMHQRKRIHQLEQQVEKLRKKLKTAQQRCRRQERQLEKLKEVVHFQKEKDDVSERGYVILPNEYFEIVEVPA [D204E] | 1.22
